Test results as given in article PMC11638594 (Molecular Therapy. Methods & Clinical Development, 2024).

Target: AAV8 capsid (adeno-associated virus serotype 8) (adeno-associated virus 8, UniProt Q8JQF8)
Assay: cryo-EM structure

B1: AAVX nanobody (CaptureSelect Biotin Anti-AAVX Conjugate; ligand of the POROS CaptureSelect AAVX affinity resin) (VHH)
VHH: QVQIQESGGGIVQAGGSLRLSCAASGRTHGMYAMGWFRQAPGKEREFVAVQDITASNTHYSSAVKGRFTLSRDNAKNTAYLQMNNLKPEDTAVYYCAAGPTLMSGSYNSARDYDYWGQGTQVTVSS
  stoichiometry N: 2 nanobodies per 5-fold
